The values that follow come from article doi:10.1101/2020.12.29.424758 (bioRxiv, 2020).

The target in the assay is YiiP from S. oneidensis (wild-type) (S. oneidensis, UniProt Q8E919). In words: SEC. A general note: Size exclusion chromatography separates by hydrodynamic size, large species first.
Chain of YiiP from S. oneidensis (wild-type) (Q8E919 whole entry): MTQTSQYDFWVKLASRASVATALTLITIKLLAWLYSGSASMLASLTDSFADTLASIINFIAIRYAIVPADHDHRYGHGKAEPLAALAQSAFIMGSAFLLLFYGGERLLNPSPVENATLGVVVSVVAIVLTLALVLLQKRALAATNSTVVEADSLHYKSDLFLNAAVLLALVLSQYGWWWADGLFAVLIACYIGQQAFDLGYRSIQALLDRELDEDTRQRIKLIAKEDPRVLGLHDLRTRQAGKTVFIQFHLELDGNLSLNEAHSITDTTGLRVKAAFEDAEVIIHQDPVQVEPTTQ

B1: Fab2 (Fab, V domains shown)
VH: EVQLVESGGGLVQPGGSLRLSCAASGFTIYSSSIHWVRQAPGKGLEWVASIYSSSGSTYYADSVKGRFTISADTSKNTAYLQMNSLRAEDTAVYYCARQSYSGLSPRRHWSYGAMDYWGQGTLVTVSS
VL: DIQMTQSPSSLSASVGDRVTITCRASQSVSSAVAWYQQKPGKAPKLLIYSASSLYSGVPSRFSGSRSGTDFTLTISSLQPEDFATYYCQQIWSWPLITFGQGTKVEIK
For the molecule B1, the binding result is on record as “binds”.
